# B1: N-terminally Strep(II)-tagged wt-human NBCn1-A (natural protein, UniProt Q9Y6M7-1 1-1214, looked up)
# chain: MERFRLEKKLPGPDEEAVVDLGKTSSTVNTKFEKEELESHRAVYIGVHVPFSKESRRRHRHRGHKHHHRRRKDKESDKEDGRESPSYDTPSQRVQFILGTEDDDEEHIPHDLFTEMDELCYRDGEEYEWKETARWLKFEEDVEDGGDRWSKPYVATLSLHSLFELRSCILNGTVMLDMRASTLDEIADMVLDNMIASGQLDESIRENVREALLKRHHHQNEKRFTSRIPLVRSFADIGKKHSDPHLLERNGEGLSASRHSLRTGLSASNLSLRGESPLSLLLGHLLPSSRAGTPAGSRCTTPVPTPQNSPPSSPSISRLTSRSSQESQRQAPELLVSPASDDIPTVVIHPPEEDLEAALKGEEQKNEENVDLTPGILASPQSAPGNLDNSKSGEIKGNGSGGSRENSTVDFSKVDMNFMRKIPTGAEASNVLVGEVDFLERPIIAFVRLAPAVLLTGLTEVPVPTRFLFLLLGPAGKAPQYHEIGRSIATLMTDEIFHDVAYKAKDRNDLLSGIDEFLDQVTVLPPGEWDPSIRIEPPKSVPSQEKRKIPVFHNGSTPTLGETPKEAAHHAGPELQRTGRLFGGLILDIKRKAPFFLSDFKDALSLQCLASILFLYCACMSPVITFGGLLGEATEGRISAIESLFGASLTGIAYSLFAGQPLTILGSTGPVLVFEKILYKFCRDYQLSYLSLRTSIGLWTSFLCIVLVATDASSLVCYITRFTEEAFAALICIIFIYEALEKLFDLGETYAFNMHNNLDKLTSYSCVCTEPPNPSNETLAQWKKDNITAHNISWRNLTVSECKKLRGVFLGSACGHHGPYIPDVLFWCVILFFTTFFLSSFLKQFKTKRYFPTKVRSTISDFAVFLTIVIMVTIDYLVGVPSPKLHVPEKFEPTHPERGWIISPLGDNPWWTLLIAAIPALLCTILIFMDQQITAVIINRKEHKLKKGAGYHLDLLMVGVMLGVCSVMGLPWFVAATVLSISHVNSLKVESECSAPGEQPKFLGIREQRVTGLMIFILMGLSVFMTSVLKFIPMPVLYGVFLYMGVSSLKGIQLFDRIKLFGMPAKHQPDLIYLRYVPLWKVHIFTVIQLTCLVLLWVIKVSAAAVVFPMMVLALVFVRKLMDLCFTKRELSWLDDLMPESKKKKEDDKKKKEKEEAERMLQDDDDTVHLPFEGGSLLQIPVKALKYSPDKPVSVKISFEDEPRKKYVDAETSL
# modifications: N-acetylglucosamine on Asn776, Asn786 and Asn796; disulfide bonds Cys766-Cys814 and Cys768-Cys802
# notes: human NBCn1-A (SLC4A7), NP_003606.3, 1214 aa, full length; the atomic model holds residues 581 to 1207; Homodimer in the cryoEM map; only residues 581-1207 (transmembrane domain and C-terminal helix) were built, the cytoplasmic N-terminal part is not in the model; also called SLC4A7; full-length human NBCn1; source: HEK293 cells, transfected (pcDNA3.1(+)), purified (StrepTrap HP, Superose 6 SEC, …)
# Molecular target: the molecule itself
# Assay: cryo-EM structure; purified NBCn1 (~1.5 mg/ml) in 20 mM Tris-HCl, 115 mM NaCl, 25 mM NaHCO3, pH 7.4, 0.01% LMNG; dimer peak of Superose 6 put on grids; three dimeric states (3.5, 3.4, 3.3 Å), final map 3.3 Å
protein,measurement,value
B1,stoichiometry N,2
